Molecular target: the molecule itself
Test: multi-angle light scattering

B1: arrestin-1 (protein)
chain: MAACGKTNKSHVIFKKVSRDKSVTIYLGKRDYVDHVSQVEPVDGVVLVDPELVKGKKVYVTLTCAFRYGQEDIDVMGLTFRRDLYFSRVQVYPPVGAMSVLTQLQESLLKKLGDNTYPFLLTFPDYLPCSVMLQPAPQDVGKSCGVDFEVKAFASDITDPEEDKIPKKSSVRLLIRKVQHAPPEMGPQPSAEASWQFFMSDKPLNLSVSLSKEIYFHGEPIPVTVTVTNNTDKVVKKIKVSVEQIANVVLYSSDYYVKPVASEETQEKVQPNSTLTKTLVLVPLLANNRERRGIALDGKIKHEDTNLASSTIIKEGIDRTVMGILVSYHIKVKLTVSGFLGELTSSEVATEVPFRLMHPQPEDPAKESVQDENLVFEEFARQNLKDTGENTEGKKDEDAGQDE
Kd: 57.5 µM

Source: article PMC3833262 (2014)
